According to PMC10772564, “Structural and Biochemical Analysis of 3-Dehydroquinate Dehydratase from Corynebacterium glutamicum” (Journal of Microbiology and Biotechnology, 2023):
Residue numbers refer to the chain shown, from its start. In names and notes the source's numbering stands.

B1: 3-dehydroquinate dehydratase from Corynebacterium glutamicum, wild type (enzyme, Corynebacterium glutamicum ATCC 13032, UniProt O52377 1-145, looked up)
chain: MPGKILLLNGPNLNMLGKREPDIYGHDTLEDVVALATAEAAKHGLEVEALQSNHEGELIDALHNARGTHIGCVINPGGLTHTSVALLDAVKASELPTVEVHISNPHAREEFRHHSYISLAAVSVIAGAGIQGYRFAVDILANLKK
notes: 3-dehydroquinate dehydratase (type II DHQD, EC 4.2.1.10) of Corynebacterium glutamicum ATCC 13032; The XhoI site of pET30a probably adds LE before the His tag (surmised); also called CgDHQD; CgDHQD^WT; source: E. coli BL21 (DE3)-T1R, purified (Ni-NTA, HiTrap Q ion exchange, size exclusion); copies: 12
B2: 3-dehydroquinate dehydratase from Corynebacterium glutamicum, R19A variant (enzyme, Corynebacterium glutamicum ATCC 13032, UniProt O52377 1-145, looked up)
chain: B1 chain with R19A
notes: also called CgDHQD^R19A; source: E. coli BL21 (DE3)-T1R, purified in the same manner as wild type (Ni-NTA, ion exchange, size exclusion)
B3: CgDHQD (Corynebacterium glutamicum ATCC 13032; S103T) (protein)
chain: B1 chain with S103T
notes: full length in pET30a (NdeI/XhoI), C-terminal 6xHis tag not reported cut, E. coli BL21(DE3); by primers starts MPGKILLLN, ends DILANLKK before tag

Key:
CgDHQD [1] = target: T1, CgDHQD (Corynebacterium glutamicum, UniProt O52377, R19A); experiment: X-ray crystal structure, […] A, crystal soaked with […] DHQ; type: binding; settings: active site; inactive variant; glycerol occupies the R19 side-chain space; pH 5.5
T1 construct: gene aroQ; full length in pET30a (NdeI/XhoI), C-terminal 6xHis tag not reported cut, E. coli BL21(DE3); by primers starts MPGKILLLN, ends DILANLKK before tag
T1 sequence (O52377 whole entry R19A): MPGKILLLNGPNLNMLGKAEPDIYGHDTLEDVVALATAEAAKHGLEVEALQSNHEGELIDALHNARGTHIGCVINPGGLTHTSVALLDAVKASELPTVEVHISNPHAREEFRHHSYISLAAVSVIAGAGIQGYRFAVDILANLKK

CgDHQD [2] = target: T2, CgDHQD (Corynebacterium glutamicum, UniProt O52377); experiment: X-ray crystal structure, […] A, co-crystallised; settings: active site, two binding modes; 0.2 M ammonium citrate tribasic pH 7.0 in the crystallisation solution
T2 construct: gene aroQ; full length in pET30a (NdeI/XhoI), C-terminal 6xHis tag not reported cut, E. coli BL21(DE3); by primers starts MPGKILLLN, ends DILANLKK before tag
T2 sequence (O52377 1-145): B1 chain

[3] = target: the molecule itself; experiment: SEC; analytical size-exclusion chromatography, Superdex 200 Increase 10/300 GL, 150 mM NaCl, 40 mM Tris-HCl pH 8.0, 1 ml of 1 mg/ml protein, 277 K; calibrated with aldolase, ovalbumin, ribonuclease A, aprotinin
purified protein = substrate: O=C1C[C@@](O)(C(=O)O)C[C@@H](O)[C@@H]1O; experiment: purified protein; type: biochemical, Corynebacterium glutamicum; settings: 50 mM Tris-HCl pH 8.0, room temperature, 20 nM enzyme, 50-2,000 uM substrate
[4] = target: the molecule itself; experiment: crystal structure; CgDHQD R19A, 0.8 M lithium sulfate, 0.4 M ammonium sulfate, 0.1 M sodium citrate pH 5.5, soaked with 100 mM DHQ; space group C2221, six molecules per asymmetric unit, 2.0 Å

Molecule | Km (purified protein) [µM] | kcat (purified protein) [s⁻¹] | further results
O=C1C[C@@](O)(C(=O)O)C[C@@H](O)[C@@H]1O [DHQ, 3-dehydroquinic acid] | – | – | X-ray crystal structure, 2.00 A, crystal soaked with 100 mM DHQ (CgDHQD [1]): The DHQ-bound structure of CgDHQD explained the substrate-binding mode of the enzyme
O=C(O)CC(O)(CC(=O)O)C(=O)O [citrate] | – | – | X-ray crystal structure, 1.80 A, co-crystallised (CgDHQD [2]): CgDHQD structure in complex with the citrate ion exhibits two different binding modes
B1 | 348.20 | 150.19 | stoichiometry N [3]: 12
B2 | – | – | binding result [4]: binds
B3 | 745.3 | 199.67 | –
